Assay results: patent publication US20240366624

Biological target: wild type STIM1, recombinant, Q13586
Sequence (Q13586 23-213): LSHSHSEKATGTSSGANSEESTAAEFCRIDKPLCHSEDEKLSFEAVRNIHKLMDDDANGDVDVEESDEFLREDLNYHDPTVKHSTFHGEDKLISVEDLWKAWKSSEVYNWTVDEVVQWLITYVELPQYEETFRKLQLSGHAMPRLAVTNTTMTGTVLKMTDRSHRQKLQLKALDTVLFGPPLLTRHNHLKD

Protein | N-ethylmaleimide labeling on the Cys49 residue in STIM1 (mass spectrometry)
recombinant human ERO1α (endoplasmic reticulum oxidoreductase 1α), wild type (protein) EEQPPETAAQRCFCQVSGYLDDCTCDVETIDRFNNYRLFPRLQKLLESDYFRYYKVNLKRPCPFWNDISQCGRRDCAVKPCQSDEVPDGIKSASYKYSEEANNLIEECEQAERLGAVDESLSEETQKAVLQWTKHDDSSDNFCEADDIQSPEAEYVDLLLNPERYTGYKGPDAWKIWNVIYEENCFKPQTIKRPLNPLASGQGTSEENTFYSWLEGLCVEKRAFYRLISGLHASINVHLSARYLLQETWLEKKWGHNITEFQQRFDGILTEGEGPRRLKNLYFLYLIELRALSKVLPFFERPDFQLFTGNKIQDEENKMLLLEILHEIKSFPLHFDENSFFAGDKKEAHKLKEDFRLHFRNISRIMDCVGCFKCRLWGKLQTQGLGTALKILFSEKLIANMPESGPSYEFHLTRQEIVSLFNAFGRISTSVKELENFRNLLQNIH | wtERO1α, but not mERO1α, decreased N-ethylmaleimide labeling on the Cys49 residue in STIM1 in a concentration-dependent manner
activity-null mutant ERO1α-Cys94Ser (protein) EEQPPETAAQRCFCQVSGYLDDCTCDVETIDRFNNYRLFPRLQKLLESDYFRYYKVNLKRPCPFWNDISQSGRRDCAVKPCQSDEVPDGIKSASYKYSEEANNLIEECEQAERLGAVDESLSEETQKAVLQWTKHDDSSDNFCEADDIQSPEAEYVDLLLNPERYTGYKGPDAWKIWNVIYEENCFKPQTIKRPLNPLASGQGTSEENTFYSWLEGLCVEKRAFYRLISGLHASINVHLSARYLLQETWLEKKWGHNITEFQQRFDGILTEGEGPRRLKNLYFLYLIELRALSKVLPFFERPDFQLFTGNKIQDEENKMLLLEILHEIKSFPLHFDENSFFAGDKKEAHKLKEDFRLHFRNISRIMDCVGCFKCRLWGKLQTQGLGTALKILFSEKLIANMPESGPSYEFHLTRQEIVSLFNAFGRISTSVKELENFRNLLQNIH | wtERO1α, but not mERO1α, decreased N-ethylmaleimide labeling on the Cys49 residue in STIM1
